Target: HSV1(F) viral capsids treated with 0.5 M KCl (HSV1 strain F) (UniProt P10219)
Assay: immunoelectron microscopy (immunogold labelling of capsids, negative staining); capsids incubated with […] pig brain cytosol, adsorbed on grids, labelled with antibodies against MAP subunits and protein-A gold; gold per mono-disperse capsid counted, labelling of capsids in buffer subtracted as background

Chain of UniProt P10219 (P10219 whole entry, looked up): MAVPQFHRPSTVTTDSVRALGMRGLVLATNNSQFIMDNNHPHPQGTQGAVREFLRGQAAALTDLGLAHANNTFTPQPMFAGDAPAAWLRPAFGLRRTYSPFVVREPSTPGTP

Substance | gold particles per capsid above background [gold/capsid] | percent of capsids with two labels [%] | percent of capsids with more than one complex, background taken into account [%]
kinesin-2 of pig brain cytosol (complex) | 0.5 | 8 | –
kinesin-1 of pig brain (complex) | 0.5 | 20 | 10
cytoplasmic dynein of pig brain cytosol (complex) | 0.75 | 40 | 20
